Assay results: US20190300590A1 (PROTAGONIST THERAPEUTICS, published 2019)
Bridges are numbered along the chain shown (N, C = ends). [ ]: non-standard residue; d: D form. Pen = CC(C)(S)[C@H](N)C(=O)O; AEA = NCCOCC(=O)O; βAla = NCCC(=O)O

Assays:
[1] = molecular target: T1, IL23R_huFC (human, UniProt Q5VWK5 24-353); test: IL23-IL23R competitive ELISA, IC50 grade
T1 sequence (looked up): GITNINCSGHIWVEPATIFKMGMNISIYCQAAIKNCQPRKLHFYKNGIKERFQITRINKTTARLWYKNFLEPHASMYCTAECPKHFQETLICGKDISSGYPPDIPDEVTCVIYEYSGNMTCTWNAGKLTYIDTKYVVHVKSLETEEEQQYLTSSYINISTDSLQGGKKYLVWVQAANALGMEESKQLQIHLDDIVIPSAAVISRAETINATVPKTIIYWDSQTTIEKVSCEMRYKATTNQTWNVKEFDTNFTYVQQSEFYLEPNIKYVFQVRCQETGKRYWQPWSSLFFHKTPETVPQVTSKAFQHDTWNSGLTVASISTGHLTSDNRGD

[2] = molecular target: T2, Cyno IL-23R_huFC (cyno, UniProt G7NWY5 24-353); test: IL-23/IL-23R competitive binding ELISA, cyno
T2 sequence: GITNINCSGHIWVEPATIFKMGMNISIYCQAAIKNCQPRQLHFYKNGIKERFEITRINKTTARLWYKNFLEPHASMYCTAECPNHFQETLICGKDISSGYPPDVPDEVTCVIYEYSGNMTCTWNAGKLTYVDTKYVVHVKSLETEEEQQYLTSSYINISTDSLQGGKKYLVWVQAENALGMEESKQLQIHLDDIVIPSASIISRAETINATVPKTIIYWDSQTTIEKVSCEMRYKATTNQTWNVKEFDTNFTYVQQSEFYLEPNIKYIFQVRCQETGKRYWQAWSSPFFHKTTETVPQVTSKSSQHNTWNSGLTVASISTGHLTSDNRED

[3] = molecular target: Rat IL-23R_huFC (rat); test: IL-23/IL-23R competitive binding ELISA, rat
[4] = molecular target: T3, Recombinant human IL-23R_huFC (RnD) (human, UniProt Q5VWK5 24-353); test: IL-23/IL-23R competitive binding ELISA, human
T3 sequence (looked up): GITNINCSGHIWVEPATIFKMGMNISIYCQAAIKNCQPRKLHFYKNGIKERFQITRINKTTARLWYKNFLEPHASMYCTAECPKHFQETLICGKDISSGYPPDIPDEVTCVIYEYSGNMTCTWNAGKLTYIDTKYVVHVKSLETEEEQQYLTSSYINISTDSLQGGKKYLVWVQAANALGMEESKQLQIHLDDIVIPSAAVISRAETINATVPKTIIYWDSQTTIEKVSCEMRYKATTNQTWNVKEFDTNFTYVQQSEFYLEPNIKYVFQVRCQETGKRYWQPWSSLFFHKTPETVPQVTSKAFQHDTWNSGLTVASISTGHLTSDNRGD

[5] = molecular target: mixture of IL-12Rβ1_huFC and IL-23R_huFC (mixed surface) (human, UniProt P42701 24-540; Q5VWK5 24-353, limits assumed); test: SPR, mixed surface of IL-12Rβ1 and IL-23R
[6] = molecular target: T4, Rat IL-23R_huFC (rat; human, UniProt F1LX96 39-369); test: rat IL-23R competitive ELISA
T4 sequence: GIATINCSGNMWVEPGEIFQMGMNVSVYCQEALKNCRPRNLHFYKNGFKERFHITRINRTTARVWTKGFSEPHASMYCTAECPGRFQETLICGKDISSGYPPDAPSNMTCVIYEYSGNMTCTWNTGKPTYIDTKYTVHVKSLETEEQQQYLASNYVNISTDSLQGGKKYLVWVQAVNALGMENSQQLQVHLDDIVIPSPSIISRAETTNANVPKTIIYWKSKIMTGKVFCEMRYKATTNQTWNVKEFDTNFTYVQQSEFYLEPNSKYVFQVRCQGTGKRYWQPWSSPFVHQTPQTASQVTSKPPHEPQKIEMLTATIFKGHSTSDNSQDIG

[7] = molecular target: Rat IL-23R_huFC (rat); test: rat ELISA vs IL-23
[8] = molecular target: T5, IL23R_huFC (human, UniProt Q5VWK5 24-353); test: human ELISA vs IL-23
T5 sequence (looked up): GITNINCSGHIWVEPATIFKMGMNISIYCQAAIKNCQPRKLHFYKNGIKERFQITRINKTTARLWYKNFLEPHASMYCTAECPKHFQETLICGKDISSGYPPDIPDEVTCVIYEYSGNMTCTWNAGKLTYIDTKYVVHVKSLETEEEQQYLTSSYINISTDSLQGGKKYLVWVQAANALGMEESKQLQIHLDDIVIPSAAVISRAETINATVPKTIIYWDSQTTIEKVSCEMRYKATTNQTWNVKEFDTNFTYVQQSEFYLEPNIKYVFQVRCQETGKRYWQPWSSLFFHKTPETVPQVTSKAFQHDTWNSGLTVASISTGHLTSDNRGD

[9] = molecular target: T5, IL23R_huFC; test: human ELISA vs IL-23; remark: listed apart in the source
[10] = molecular target: T5, IL23R_huFC; test: human ELISA vs IL-23; remark: listed apart in the source
[11] = molecular target: Rat IL-23R_huFC (rat); test: rat ELISA vs IL-23; remark: listed apart in the source
[12] = molecular target: T5, IL23R_huFC; test: human ELISA vs IL-23; remark: listed apart in the source
[13] = molecular target: T6, IL-23R on human cells (IL-23R-expressing DB cells; human NK cells) (human, UniProt Q5VWK5 24-629); test: cell-based or functional assay
T6 sequence (looked up): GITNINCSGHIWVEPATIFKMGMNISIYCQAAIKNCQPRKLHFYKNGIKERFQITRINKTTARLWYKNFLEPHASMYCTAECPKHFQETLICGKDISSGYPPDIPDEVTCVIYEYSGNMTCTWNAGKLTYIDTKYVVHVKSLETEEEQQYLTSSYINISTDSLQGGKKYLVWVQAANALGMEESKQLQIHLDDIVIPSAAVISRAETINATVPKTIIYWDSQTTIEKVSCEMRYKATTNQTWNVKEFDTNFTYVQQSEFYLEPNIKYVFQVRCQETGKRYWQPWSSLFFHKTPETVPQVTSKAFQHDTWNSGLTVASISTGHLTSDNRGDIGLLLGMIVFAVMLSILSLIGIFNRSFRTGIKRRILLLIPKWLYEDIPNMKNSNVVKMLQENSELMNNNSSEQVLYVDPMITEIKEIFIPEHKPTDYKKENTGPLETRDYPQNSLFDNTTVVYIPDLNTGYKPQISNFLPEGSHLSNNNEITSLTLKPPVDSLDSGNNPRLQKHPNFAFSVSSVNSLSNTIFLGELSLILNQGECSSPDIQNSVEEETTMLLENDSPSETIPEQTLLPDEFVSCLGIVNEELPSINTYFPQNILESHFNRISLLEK

[14] = molecular target: T7, IL-23R on DB cells (human, UniProt Q5VWK5 24-629); test: cell-based or functional assay
T7 sequence (looked up): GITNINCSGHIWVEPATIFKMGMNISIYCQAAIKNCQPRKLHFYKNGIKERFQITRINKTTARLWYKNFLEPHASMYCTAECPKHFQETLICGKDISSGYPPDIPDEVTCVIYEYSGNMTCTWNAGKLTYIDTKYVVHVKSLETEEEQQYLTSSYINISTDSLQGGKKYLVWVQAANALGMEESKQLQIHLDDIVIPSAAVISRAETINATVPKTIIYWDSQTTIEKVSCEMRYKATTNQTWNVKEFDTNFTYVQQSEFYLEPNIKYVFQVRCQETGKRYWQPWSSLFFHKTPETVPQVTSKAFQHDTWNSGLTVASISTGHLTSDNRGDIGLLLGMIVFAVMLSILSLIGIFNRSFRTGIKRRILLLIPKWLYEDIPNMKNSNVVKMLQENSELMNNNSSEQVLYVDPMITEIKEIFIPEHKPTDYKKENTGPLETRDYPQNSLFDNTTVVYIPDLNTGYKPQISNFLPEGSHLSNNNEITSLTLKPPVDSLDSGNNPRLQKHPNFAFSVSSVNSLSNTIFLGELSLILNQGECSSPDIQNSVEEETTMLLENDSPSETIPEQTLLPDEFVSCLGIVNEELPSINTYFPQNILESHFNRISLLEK

[15] = molecular target: T8, IL23R_huFC (human, UniProt Q5VWK5 24-353); test: IL23-IL23R competitive binding ELISA
T8 sequence (looked up): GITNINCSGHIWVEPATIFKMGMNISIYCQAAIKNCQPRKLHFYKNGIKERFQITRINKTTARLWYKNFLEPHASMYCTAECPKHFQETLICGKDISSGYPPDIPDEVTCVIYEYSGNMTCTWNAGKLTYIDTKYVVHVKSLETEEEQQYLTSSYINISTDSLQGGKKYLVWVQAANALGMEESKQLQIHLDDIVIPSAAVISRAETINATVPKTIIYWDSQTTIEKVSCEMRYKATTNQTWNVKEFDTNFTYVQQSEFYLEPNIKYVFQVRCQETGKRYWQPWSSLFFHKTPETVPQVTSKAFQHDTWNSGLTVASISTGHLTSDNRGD

[16] = molecular target: T1, IL23R_huFC; test: IL23-IL23R competitive ELISA, IC50 grade; remark: listed apart in the source
[17] = molecular target: T1, IL23R_huFC; test: IL23-IL23R competitive ELISA

B1: (Ac-CADWVCYWHTFG-[β-Ala]-[(D)Lys]-OH)2DIG (peptide)
peptide: CADWVCYWHTFGAK
modifications: not fully specified; Ac-; [β-Ala]; [(D)Lys]; DIG through Lysine
IC50 [1]: 25 to 100 nM

B2: Peptide 993 (peptide)
peptide: RXQTWQCFXXENN
modifications: Ac-[(D)Arg]-Cyclo-[[Abu]-QTWQC]-[Phe[4-(2-aminoethoxy)]]-[2-Nal]-[4-amino-4-carboxy-tetrahydropyran]-ENN-NH2; cyclized by Abu-Cys thioether
IC50 [2]: 2 nM
IC50 [3]: 2 nM
IC50 [4]: 2 nM

B3: Recombinant human IL-23 (Humanzyme) (ligand)
chain 1: RAVPGGSSPAWTQCQQLSQKLCTLAWSAHPLVGHMDLREEGDEETTNDVPHIQCGDGCDPQGLRDNSQFCLQRIHQGLIFYEKLLGSDIFTGEPSLLPDSPVGQLHASLLGLSQLLQPEGHHWETQQIPSLSPSQPWQRLLLRFKILRSLQAFVAVAARVFAHGAATLSP
chain 2: IWELKKDVYVVELDWYPDAPGEMVVLTCDTPEEDGITWTLDQSSEVLGSGKTLTIQVKEFGDAGQYTCHKGGEVLSHSLLLLHKKEDGIWSTDILKDQKEPKNKTFLRCEAKNYSGRFTCWWLTTISTDLTFSVKSSRGSSDPQGVTCGAATLSAERVRGDNKEYEYSVECQEDSACPAAEESLPIEVMVDAVHKLKYENYTSSFFIRDIIKPDPPKNLQLKPLKNSRQVEVSWEYPDTWSTPHSYFSLTFCVQVQGKSKREKKDRVFTDKTSATVICRKNASISVRAQDRYYSSSWSEWASVPCS
fold of affinity against Compound C [5]: ~14 fold

B4: Ac-CQTWQCYW-[βAla]-VFG-[AEA]-[(D)Lys]-NH2 (peptide)
peptide: Ac-CQTWQCYW[βAla]VFG[AEA][dK]-NH2
modifications: disulfide 1-6 (inferred)
IC50 [6]: 2210 nM

B5: Ac-CQTWQ-[Pen]-YW-[α-MeLeu]-ENG-NH2 (peptide)
peptide: CQTWQXYWLENG
modifications: as bracketed in name; cyclized via Cys and Pen
IC50 [7]: 100 to 1000 nM
IC50 [8]: 100 to 1000 nM

B6: Ac-CQTWQ-[Pen]-YW-[(D)Asn]-ENG-NH2 (peptide)
peptide: Ac-CQTWQ[Pen]YW[dN]ENG-NH2
modifications: disulfide 1-6
SMILES: CC(=O)N[C@H]1CSSC(C)(C)[C@@H](C(=O)N[C@@H](Cc2ccc(O)cc2)C(=O)N[C@@H](Cc2c[nH]c3ccccc23)C(=O)N[C@H](CC(N)=O)C(=O)N[C@@H](CCC(=O)O)C(=O)N[C@@H](CC(N)=O)C(=O)NCC(N)=O)NC(=O)[C@H](CCC(N)=O)NC(=O)[C@H](Cc2c[nH]c3ccccc23)NC(=O)[C@H]([C@@H](C)O)NC(=O)[C@H](CCC(N)=O)NC1=O
IC50 [9]: 1000 to 10000 nM

B7: [Ac-Cyclo-[[Abu]-QTWQC]-[Phe]4-(2-aminoethoxy)]]-[2-Nal]-[Aib]-QNG-NH2]2DIG (peptide)
peptide: XQTWQCFXXQNG
modifications: not fully specified; as bracketed in name; thioether cyclo; DIG linker through Phe[4-(2-aminoethoxy)]
IC50 [10]: 25 to 100 nM

B8: [Ac-[(D)Lys]-Cyclo-[[Abu]-QTWQC]-[Phe(4-OMe)]-[2-Nal]-[α-MeLeu]-ENG-NH2]2 DIG (peptide)
peptide: KXQTWQCFXLENG
modifications: not fully specified; as bracketed in name; thioether cyclo; DIG linker through (D)Lys
IC50 [11]: 25 to 100 nM
IC50 [12]: < 10 nM
pStat3 HTRF IC50 [13]: < 10 nM

B9: [Ac-[Pen]-QTWQ-[Pen]-[Phe[4-(2-aminoethoxy)]-[2-Nal]-[α-Me-Leu]-QNN-NH2]2DIG (peptide)
peptide: XQTWQXFXLQNN
modifications: Ac; Pen-Pen disulfide; Phe[4-(2-aminoethoxy)]; 2-Nal; α-Me-Leu; NH2; DIG linker joins the two subunits
pStat3 HTRF IC50 [14]: 10 to 25 nM
IC50 [15]: 10 to 25 nM

B10: [Ac-[Pen]-QTWQ-[Pen]-[Phe[4-(2-aminoethoxy)]-[2-Nal]-[α-Me-Leu]-QNN-NH2]2PEG25 (peptide)
peptide: XQTWQXFXLQNN
modifications: Ac; Pen-Pen disulfide; Phe[4-(2-aminoethoxy)]; 2-Nal; α-Me-Leu; NH2; PEG25 linker joins the two subunits
pStat3 HTRF IC50 [14]: 10 to 25 nM
IC50 [15]: < 10 nM

B11: Hy-CADWVCYWHTFG-NH2 (peptide)
peptide: H-CADWVCYWHTFG-NH2
modifications: disulfide 1-6 (inferred)
IC50 [16]: 100 to 1000 nM
IC50 [17]: 500 to 1000 nM

B12: Ac-CQTWQCYWR-[Aib]-NG-[AEA]-[(D)Lys]-NH2 (peptide)
peptide: CQTWQCYWRXNGXK
modifications: Ac-; [Aib]; [AEA]; [(D)Lys]; -NH2
IC50 [6]: 1060 nM
